Test results: patent US20250099634A1, “METHOD OF TREATING CANCER” (Novartis AG, priority 2023, published 2025)
Read-outs that look alike come from different tables or passages of the source.

Assays:
progressive GEP-NETs = settings: cited from earlier work
[1] = test system: somatostatin receptor-positive tumors, including GEP-NETS; settings: 1,214 patients; cited from earlier work
OCT2 = OCT2 (Homo sapiens, UniProt O15244)
midgut carcinoid tumors = settings: NETTER-1, cited from earlier work
[2] = in vivo; cited from earlier work
[3] = NETTER-2 subject disposition: discontinuation of randomized treatment phase (Full Analysis Set); format: in vivo, human
Text: The discontinuation of either study treatments in both arms (Lutathera or octreotide long-acting) is not a reason for patient's withdrawal either from the clinical/tumor assessments until tumor progression, or for early study termination. However, in case of a patient's withdrawal from the clinical/tumor assessments or early study termination (based on either the patient's or the Investigator's decision), patients will undergo all exams scheduled for the End of Treatment (EOT) visit.
The Full Analysis Set (FAS) comprises all subjects to whom study treatment has been assigned by randomization. According to the intent to treat principle, subjects will be analyzed according to the treatment and strata they have been assigned to during the randomization procedure.

OAT1 = OAT1 (Homo sapiens, UniProt Q4U2R8)
Chain of OAT1 (Q4U2R8 whole entry): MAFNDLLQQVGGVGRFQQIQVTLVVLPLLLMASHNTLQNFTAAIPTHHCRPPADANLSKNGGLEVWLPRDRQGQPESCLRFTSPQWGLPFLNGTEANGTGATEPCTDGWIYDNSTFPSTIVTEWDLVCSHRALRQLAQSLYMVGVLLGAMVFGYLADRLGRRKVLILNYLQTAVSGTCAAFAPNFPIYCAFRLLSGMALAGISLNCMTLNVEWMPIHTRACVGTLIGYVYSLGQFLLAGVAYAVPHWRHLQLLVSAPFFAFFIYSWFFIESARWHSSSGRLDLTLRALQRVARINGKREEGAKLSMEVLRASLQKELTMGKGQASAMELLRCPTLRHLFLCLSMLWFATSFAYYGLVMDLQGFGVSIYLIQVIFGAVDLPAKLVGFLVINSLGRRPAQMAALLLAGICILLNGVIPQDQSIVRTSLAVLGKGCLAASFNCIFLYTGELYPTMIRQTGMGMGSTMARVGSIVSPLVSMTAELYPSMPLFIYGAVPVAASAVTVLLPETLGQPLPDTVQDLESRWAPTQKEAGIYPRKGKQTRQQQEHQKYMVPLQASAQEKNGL

OCT1 = OCT1 (Homo sapiens, UniProt O15245)
Chain of OCT1 (O15245 whole entry): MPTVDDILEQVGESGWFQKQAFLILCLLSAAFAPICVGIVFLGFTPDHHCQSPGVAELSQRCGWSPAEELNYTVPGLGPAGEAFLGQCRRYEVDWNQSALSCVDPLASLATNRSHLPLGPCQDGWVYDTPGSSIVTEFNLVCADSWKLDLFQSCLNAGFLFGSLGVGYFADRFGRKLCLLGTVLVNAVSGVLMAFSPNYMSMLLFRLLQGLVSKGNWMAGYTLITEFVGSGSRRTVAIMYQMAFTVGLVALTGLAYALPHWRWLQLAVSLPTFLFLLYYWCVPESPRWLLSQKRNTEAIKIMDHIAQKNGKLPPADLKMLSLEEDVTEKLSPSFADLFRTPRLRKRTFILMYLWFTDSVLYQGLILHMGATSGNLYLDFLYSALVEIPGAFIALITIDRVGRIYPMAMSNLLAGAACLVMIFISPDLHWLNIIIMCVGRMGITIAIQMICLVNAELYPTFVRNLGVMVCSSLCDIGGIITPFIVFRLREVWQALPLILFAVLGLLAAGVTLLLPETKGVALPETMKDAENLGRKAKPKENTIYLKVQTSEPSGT

[4] = NETTER-2 deaths (Safety Set); format: in vivo, human
OATP1B1 = OATP1B1 (Homo sapiens, UniProt Q9Y6L6)
Chain of OATP1B1 (Q9Y6L6 whole entry): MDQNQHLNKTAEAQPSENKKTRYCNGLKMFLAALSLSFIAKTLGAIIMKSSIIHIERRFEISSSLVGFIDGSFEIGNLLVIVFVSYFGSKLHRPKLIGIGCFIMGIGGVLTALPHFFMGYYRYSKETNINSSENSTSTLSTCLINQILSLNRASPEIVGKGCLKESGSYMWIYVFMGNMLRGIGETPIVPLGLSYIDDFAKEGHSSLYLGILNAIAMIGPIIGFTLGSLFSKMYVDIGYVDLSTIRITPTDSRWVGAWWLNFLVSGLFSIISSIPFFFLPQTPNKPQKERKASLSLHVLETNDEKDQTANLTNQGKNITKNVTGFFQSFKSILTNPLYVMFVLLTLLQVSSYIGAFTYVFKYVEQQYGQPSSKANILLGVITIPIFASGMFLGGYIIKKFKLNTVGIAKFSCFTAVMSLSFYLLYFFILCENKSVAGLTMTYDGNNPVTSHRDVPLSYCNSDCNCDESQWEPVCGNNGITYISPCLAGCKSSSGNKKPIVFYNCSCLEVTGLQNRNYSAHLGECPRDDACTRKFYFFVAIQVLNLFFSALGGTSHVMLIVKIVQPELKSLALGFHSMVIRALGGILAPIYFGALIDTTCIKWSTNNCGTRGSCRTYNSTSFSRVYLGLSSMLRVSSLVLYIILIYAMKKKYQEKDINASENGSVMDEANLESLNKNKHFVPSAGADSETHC

[5] = target: P-glycoprotein (efflux transporter) (Homo sapiens, UniProt P08183)
Chain of P-glycoprotein (efflux transporter) (P08183 whole entry): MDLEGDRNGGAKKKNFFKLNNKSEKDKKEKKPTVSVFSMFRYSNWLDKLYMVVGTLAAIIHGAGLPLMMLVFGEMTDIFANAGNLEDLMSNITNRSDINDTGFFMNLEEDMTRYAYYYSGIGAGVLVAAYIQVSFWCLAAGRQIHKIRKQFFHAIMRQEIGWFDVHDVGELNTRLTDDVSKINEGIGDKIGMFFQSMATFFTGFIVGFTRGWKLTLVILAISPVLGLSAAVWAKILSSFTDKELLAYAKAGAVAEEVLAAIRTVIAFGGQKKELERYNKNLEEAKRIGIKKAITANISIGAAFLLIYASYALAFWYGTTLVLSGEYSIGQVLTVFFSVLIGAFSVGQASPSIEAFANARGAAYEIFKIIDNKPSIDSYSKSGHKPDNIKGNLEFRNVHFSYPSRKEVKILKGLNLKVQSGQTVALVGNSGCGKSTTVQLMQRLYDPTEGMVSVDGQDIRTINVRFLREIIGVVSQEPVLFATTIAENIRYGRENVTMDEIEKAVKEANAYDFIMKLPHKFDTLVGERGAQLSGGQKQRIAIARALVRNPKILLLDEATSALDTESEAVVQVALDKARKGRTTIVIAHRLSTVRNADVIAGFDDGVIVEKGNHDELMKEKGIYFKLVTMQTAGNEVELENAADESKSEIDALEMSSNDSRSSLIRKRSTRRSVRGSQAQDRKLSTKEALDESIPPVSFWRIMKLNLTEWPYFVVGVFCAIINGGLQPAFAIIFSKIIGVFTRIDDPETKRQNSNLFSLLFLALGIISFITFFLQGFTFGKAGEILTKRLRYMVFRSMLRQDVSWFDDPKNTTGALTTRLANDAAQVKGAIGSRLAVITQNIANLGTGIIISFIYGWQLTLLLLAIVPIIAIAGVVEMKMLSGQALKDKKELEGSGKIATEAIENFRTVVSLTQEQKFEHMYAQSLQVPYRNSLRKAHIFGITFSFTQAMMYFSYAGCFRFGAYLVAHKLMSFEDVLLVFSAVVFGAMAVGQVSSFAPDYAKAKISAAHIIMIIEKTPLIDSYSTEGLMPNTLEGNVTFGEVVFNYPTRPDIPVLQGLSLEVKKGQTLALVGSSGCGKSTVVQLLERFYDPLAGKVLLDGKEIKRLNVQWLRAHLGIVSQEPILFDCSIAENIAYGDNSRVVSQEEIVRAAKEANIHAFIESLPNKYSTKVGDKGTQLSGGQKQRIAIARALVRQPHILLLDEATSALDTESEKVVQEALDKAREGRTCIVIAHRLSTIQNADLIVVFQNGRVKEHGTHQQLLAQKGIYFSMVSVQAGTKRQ

[6] = in vivo; cited from earlier work; remark: listed apart in the source
OAT3 = OAT3 (Homo sapiens, UniProt Q8TCC7)
Chain of OAT3 (Q8TCC7 whole entry): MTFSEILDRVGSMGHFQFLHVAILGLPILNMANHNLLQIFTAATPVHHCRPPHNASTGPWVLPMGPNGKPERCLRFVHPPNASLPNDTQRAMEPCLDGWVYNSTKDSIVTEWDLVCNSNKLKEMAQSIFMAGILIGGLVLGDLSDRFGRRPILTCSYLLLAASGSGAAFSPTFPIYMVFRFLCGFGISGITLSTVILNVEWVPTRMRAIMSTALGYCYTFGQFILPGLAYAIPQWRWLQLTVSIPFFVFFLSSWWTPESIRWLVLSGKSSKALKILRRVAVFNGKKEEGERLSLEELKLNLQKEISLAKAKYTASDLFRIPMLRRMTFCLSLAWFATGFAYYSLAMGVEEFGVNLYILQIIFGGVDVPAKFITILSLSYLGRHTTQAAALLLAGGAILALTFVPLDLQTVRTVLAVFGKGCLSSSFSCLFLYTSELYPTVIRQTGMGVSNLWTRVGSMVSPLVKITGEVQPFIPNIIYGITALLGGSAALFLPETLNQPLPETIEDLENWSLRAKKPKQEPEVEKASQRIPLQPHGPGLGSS

[7] = All grades, randomized treatment period, Safety Set
[8] = Grade >=3, randomized treatment period, Safety Set
[9] = all grades, randomized treatment period
[10] = most frequent AEs, summary table

Chain of OCT2 (O15244 whole entry): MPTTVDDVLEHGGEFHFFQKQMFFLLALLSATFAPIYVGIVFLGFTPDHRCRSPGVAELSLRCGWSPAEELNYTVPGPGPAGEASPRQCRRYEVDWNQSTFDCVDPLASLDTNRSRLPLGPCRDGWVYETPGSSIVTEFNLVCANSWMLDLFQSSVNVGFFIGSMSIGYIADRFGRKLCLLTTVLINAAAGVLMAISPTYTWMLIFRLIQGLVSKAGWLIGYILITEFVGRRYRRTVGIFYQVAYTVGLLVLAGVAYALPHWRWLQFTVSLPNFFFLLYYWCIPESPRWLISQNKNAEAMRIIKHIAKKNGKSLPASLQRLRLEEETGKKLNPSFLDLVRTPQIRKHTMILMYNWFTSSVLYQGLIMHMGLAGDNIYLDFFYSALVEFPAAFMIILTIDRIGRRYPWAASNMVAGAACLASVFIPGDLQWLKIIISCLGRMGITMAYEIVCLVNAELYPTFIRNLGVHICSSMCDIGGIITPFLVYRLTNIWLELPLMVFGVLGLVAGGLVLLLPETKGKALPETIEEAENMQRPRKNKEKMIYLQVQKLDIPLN

**Q.** What does the source list for `C[C@@H](O)[C@H](NC(=O)[C@@H]1CSSC[C@H](NC(=O)[C@@H](Cc2ccccc2)NC(=O)CN2CCN(CC(=O)[O-])CCN(CC(=O)[O-])CCN(CC(=O)[O-])CC2)C(=O)N[C@@H](Cc2ccc(O)cc2)C(=O)N[C@H](Cc2c[nH]c3ccccc23)C(=O)N[C@@H](CCCCN)C(=O)N[C@@H]([C@@H](C)O)C(=O)N1)C(=O)O.[177Lu+3]` [Lutathera, ^177Lu-DOTA^0-Tyr^3-Octreotate]?
**A.** AML and MDS (progressive GEP-NETs; in vivo): < 1%; Hematologic grade 3/4 AEs (progressive GEP-NETs; in vivo): 9%; median OS from the start of re-treatment (progressive GEP-NETs; re-treatment, available in 194 patients): 26.78 months; DCR (progressive GEP-NETs; re-treatment, available in 347 patients): 71%; median PFS (progressive GEP-NETs; re-treatment, available in 414 patients): 12.52 months; Complete or partial tumor remission [1]: 39%; interaction with OCT2 (OCT2): absence of specific interaction; risk reduction in likelihood of progression or death event (midgut carcinoid tumors; Lutathera versus 60 mg octreotide long-acting): 79%; confirmed events (disease progressions RECIST 1.1 centrally assessed or deaths) (midgut carcinoid tumors): 21; median PFS (midgut carcinoid tumors): not yet been reached; delayed bone marrow toxicity [2]: 1.5 to 2%; Reason for End of Randomized Treatment Phase: Death ([3]; Full Analysis Set): 4 (2.6) n (%); Reason for End of Randomized Treatment Phase: Progressive Disease ([3]; Full Analysis Set): 42 (27.8) n (%); Reason for End of Randomized Treatment Phase: Adverse Event ([3]; human, in vivo): 8 (5.3) n (%); Treatment discontinuation due to adverse event ([3]; human, in vivo): 5.3%; discontinuation for progressive disease ([3]; randomized period): 27.8%; interaction with OAT1 (OAT1): absence of specific interaction; interaction with OCT1 (OCT1): absence of specific interaction; inhibition or induction of human CYP450 enzymes (human CYP450 enzymes): absence of inhibition or significant induction; Number of Subjects who Died (Overall) ([4]; Safety Set): 32 (21.8) n (%); Number of Subjects who Died (Overall), primary reason Adverse Event ([4]; Safety Set): 2 (1.4) n (%); Number of Subjects who Died (Overall), primary reason Disease under Study ([4]; Safety Set): 30 (20.4) n (%); Number of Subjects who Died on-treatment in randomized treatment period (within 30 days of last dose), primary reason Disease under Study ([4]; Safety Set): 2 (1.4) n (%); Number of Subjects who Died on-treatment in re-treatment period (within 30 days of last dose) ([4]; Safety Set): 0 n (%); Number of subjects who died in the post-treatment follow up period ([4]; Safety Set): 30 (20.4) n (%); Number of subjects who died in the post-treatment follow up period, primary reason Adverse Event ([4]; Safety Set): 2 (1.4) n (%); Number of subjects who died in the post-treatment follow up period, primary reason Disease under Study ([4]; Safety Set): 28 (19.0) n (%); cause of death: adverse event ([4]; during the study): 1.4%; cause of death: disease under study ([4]; during the study): 20.4%; subjects died during the study ([4]; during the study): 21.8%; subjects died within 30 days after the last dose ([4]; randomized treatment period): 1.4%; interaction with OATP1B1 (OATP1B1): absence of specific interaction; interaction with P-glycoprotein [5]: absence of specific interaction; Clinically significant myelosuppression [6]: less than 10%; grade 3 or 4 lymphopenia [6]: 9%; grade 3 or 4 neutropenia [6]: 1%; grade 3 or 4 thrombocytopenia [6]: 2%; renal toxicities within the period of observation [6]: no evidence of renal toxicities; interaction with OAT3 (OAT3): absence of specific interaction; AEs leading to discontinuation of Any Treatment (Lutathera, Octreotide) [7]: 7 (4.8) n (%); AEs leading to discontinuation of Lutathera [7]: 3 (2.0) n (%); AEs leading to discontinuation of Octreotide [7]: 5 (3.4) n (%); AEs leading to dose interruption of Any Treatment (Lutathera, Octreotide) [7]: 23 (15.6) n (%); AEs leading to dose interruption of Lutathera [7]: 14 (9.5) n (%); AEs leading to dose reduction of Any Treatment (Lutathera, Octreotide) [7]: 3 (2.0) n (%); AEs leading to dose reduction of Lutathera [7]: 2 (1.4) n (%); AEs leading to dose reduction of Octreotide [7]: 1 (0.7) n (%); AEs requiring additional therapy [7]: 109 (74.1) n (%); Adverse event: Abdominal pain [7]: 26 (17.7) n (%); Adverse event: Alanine aminotransferase increased [7]: 16 (10.9) n (%); Adverse event: Alopecia [7]: 22 (15.0) n (%); Adverse event: Anaemia [7]: 29 (19.7) n (%); Adverse event: Aspartate aminotransferase increased [7]: 16 (10.9) n (%); Adverse event: Asthenia [7]: 28 (19.0) n (%); Adverse event: COVID-19 [7]: 28 (19.0) n (%); Adverse event: Constipation [7]: 15 (10.2) n (%); Adverse event: Diarrhoea [7]: 38 (25.9) n (%); Adverse event: Fatigue [7]: 29 (19.7) n (%); Adverse event: Gamma-glutamyltransferase increased [7]: 12 (8.2) n (%); Adverse event: Headache [7]: 16 (10.9) n (%); Adverse event: Hyperglycaemia [7]: 20 (13.6) n (%); Adverse event: Lymphocyte count decreased [7]: 16 (10.9) n (%); Adverse event: Nausea [7]: 40 (27.2) n (%); Adverse event: Oedema peripheral [7]: 17 (11.6) n (%); Adverse event: Platelet count decreased [7]: 25 (17.0) n (%); Adverse event: Vomiting [7]: 21 (14.3) n (%); Adverse event: Weight increased [7]: 18 (12.2) n (%); Adverse events [7]: 136 (92.5) n (%); Adverse events Related to Amino Acids [7]: 22 (15.0) n (%); Adverse events Related to Any Treatment [7]: 101 (68.7) n (%); Adverse events Related to Lutathera [7]: 96 (65.3) n (%); Adverse events Related to Octreotide [7]: 55 (37.4) n (%); Adverse events: Number of subjects with at least one event [7]: 136 (92.5) n (%); AEs leading to discontinuation of Any Treatment (Lutathera, Octreotide) [8]: 4 (2.7) n (%); AEs leading to discontinuation of Lutathera [8]: 1 (0.7) n (%); AEs leading to discontinuation of Octreotide [8]: 3 (2.0) n (%); AEs leading to dose interruption of Any Treatment (Lutathera, Octreotide) [8]: 7 (4.8) n (%); AEs leading to dose interruption of Lutathera [8]: 3 (2.0) n (%); AEs leading to dose interruption of Octreotide [8]: 7 (4.8) n (%); AEs leading to dose reduction of Any Treatment (Lutathera, Octreotide) [8]: 1 (0.7) n (%); AEs leading to dose reduction of Lutathera [8]: 1 (0.7) n (%); AEs leading to dose reduction of Octreotide [8]: 0 n (%); AEs requiring additional therapy [8]: 28 (19.0) n (%); Adverse event: Abdominal pain [8]: 4 (2.7) n (%); Adverse event: Alanine aminotransferase increased [8]: 1 (0.7) n (%); Adverse event: Alopecia [8]: 0 n (%); Adverse event: Anaemia [8]: 1 (0.7) n (%); Adverse event: Aspartate aminotransferase increased [8]: 1 (0.7) n (%); Adverse event: Asthenia [8]: 1 (0.7) n (%); Adverse event: COVID-19 [8]: 0 n (%); Adverse event: Constipation [8]: 1 (0.7) n (%); Adverse event: Decreased appetite [8]: 0 n (%); Adverse event: Diarrhoea [8]: 2 (1.4) n (%); Adverse event: Fatigue [8]: 0 n (%); Adverse event: Gamma-glutamyltransferase increased [8]: 7 (4.8) n (%); Adverse event: Headache [8]: 0 n (%); Adverse event: Hyperglycaemia [8]: 0 n (%); Adverse event: Lymphocyte count decreased [8]: 8 (5.4) n (%); Adverse event: Nausea [8]: 1 (0.7) n (%); Adverse event: Oedema peripheral [8]: 0 n (%); Adverse event: Platelet count decreased [8]: 2 (1.4) n (%); Adverse event: Vomiting [8]: 1 (0.7) n (%); Adverse event: Weight increased [8]: 2 (1.4) n (%); Adverse event: White blood cell count decreased [8]: 3 (2.0) n (%); Adverse events [8]: 52 (35.4) n (%); Adverse events Related to Amino Acids [8]: 1 (0.7) n (%); Adverse events Related to Any Treatment [8]: 23 (15.6) n (%); Adverse events Related to Lutathera [8]: 22 (15.0) n (%); Adverse events Related to Octreotide [8]: 2 (1.4) n (%); Adverse events: Number of subjects with at least one event [8]: 52 (35.4) n (%); adverse event by preferred term: abdominal pain [9]: 17.7%; adverse event by preferred term: diarrhoea [9]: 25.9%; adverse event by preferred term: nausea [9]: 27.2%; safety findings in NETTER-2 (consistent with established safety profile): No new or unexpected safety findings; Incidence of AEs: Abdominal pain [10]: 26 (17.7) (%); Incidence of AEs: Diarrhoea [10]: 38 (25.9) (%); Incidence of AEs: Nausea [10]: 40 (27.2) (%); AEs leading to discontinuation of Lutathera (randomized treatment period): 2.0% vs. NA; AEs leading to discontinuation of Lutathera and/or Octreotide (randomized treatment period): 4.8%; AEs leading to discontinuation of Octreotide (randomized treatment period): 3.4%; Any AEs (randomized treatment period): 92.5%; Grade 3/4 AE: GGT increased (randomized treatment period): 4.8%; Grade 3/4 AE: Lymphocyte count decreased (randomized treatment period): 5.4%; Grade 3/4 AE: abdominal pain (randomized treatment period): 2.7%; Grade 3/4 AE: small intestinal obstruction (randomized treatment period): 3.4%; Grade ≥3 AEs (randomized treatment period): 35.4%; Grade ≥3 AEs, Treatment-related (randomized treatment period): 15.6%
